US20030100501A1 (CASE WESTERN RESERVE UNIVERSITY, published 2003)
Square brackets hold non-standard residues; d marks the D form. Ends that are not written are not given here. Nle = CCCC[C@H](N)C(=O)O

Assays:
[1] = target: wild-type CFTR (cystic fibrosis transmembrane conductance regulator) (UniProt P13569 1-1480, limits assumed); assay: cell-based or functional assay
mutant G551D CFTR = mutant G551D CFTR (UniProt P13569 1-1480, limits assumed); assay: cell-based or functional assay
Sequence of mutant G551D CFTR (P13569 whole entry G551D): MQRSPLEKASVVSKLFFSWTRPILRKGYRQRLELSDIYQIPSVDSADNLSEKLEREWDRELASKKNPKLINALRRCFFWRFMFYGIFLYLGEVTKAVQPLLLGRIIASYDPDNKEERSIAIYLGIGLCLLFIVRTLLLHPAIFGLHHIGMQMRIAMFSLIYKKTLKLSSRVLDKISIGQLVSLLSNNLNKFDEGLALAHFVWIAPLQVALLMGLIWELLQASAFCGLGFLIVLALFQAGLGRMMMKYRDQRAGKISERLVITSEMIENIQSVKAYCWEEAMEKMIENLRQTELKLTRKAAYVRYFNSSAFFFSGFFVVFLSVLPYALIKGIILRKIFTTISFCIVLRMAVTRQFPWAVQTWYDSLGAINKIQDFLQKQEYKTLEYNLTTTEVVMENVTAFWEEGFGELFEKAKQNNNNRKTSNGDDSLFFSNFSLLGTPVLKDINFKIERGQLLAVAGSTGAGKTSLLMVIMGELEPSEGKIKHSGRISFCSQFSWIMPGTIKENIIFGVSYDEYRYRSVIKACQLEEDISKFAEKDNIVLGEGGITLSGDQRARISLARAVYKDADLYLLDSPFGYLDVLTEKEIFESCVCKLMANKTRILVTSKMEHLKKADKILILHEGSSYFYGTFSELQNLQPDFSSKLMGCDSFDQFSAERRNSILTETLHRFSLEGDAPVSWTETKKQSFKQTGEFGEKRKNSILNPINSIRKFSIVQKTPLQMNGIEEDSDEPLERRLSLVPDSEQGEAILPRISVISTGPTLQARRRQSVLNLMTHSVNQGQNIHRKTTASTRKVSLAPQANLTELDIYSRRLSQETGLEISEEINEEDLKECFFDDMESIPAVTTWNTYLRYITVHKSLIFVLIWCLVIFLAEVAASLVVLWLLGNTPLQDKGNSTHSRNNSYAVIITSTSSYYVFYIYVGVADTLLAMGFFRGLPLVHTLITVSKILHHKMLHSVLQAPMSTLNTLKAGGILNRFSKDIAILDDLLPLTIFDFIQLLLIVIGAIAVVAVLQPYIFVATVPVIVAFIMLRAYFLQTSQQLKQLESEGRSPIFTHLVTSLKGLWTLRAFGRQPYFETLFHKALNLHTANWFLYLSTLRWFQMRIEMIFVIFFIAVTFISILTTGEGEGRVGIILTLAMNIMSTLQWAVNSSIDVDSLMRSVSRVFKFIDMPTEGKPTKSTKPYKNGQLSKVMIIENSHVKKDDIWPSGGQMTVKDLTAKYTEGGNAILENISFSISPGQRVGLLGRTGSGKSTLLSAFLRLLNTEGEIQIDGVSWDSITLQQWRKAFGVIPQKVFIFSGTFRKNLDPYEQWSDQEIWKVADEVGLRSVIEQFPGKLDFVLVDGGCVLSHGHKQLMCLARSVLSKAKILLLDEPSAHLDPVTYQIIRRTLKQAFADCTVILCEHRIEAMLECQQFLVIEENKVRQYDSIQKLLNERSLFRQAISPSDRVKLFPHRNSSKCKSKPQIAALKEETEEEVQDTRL

Sequence of wild-type CFTR (cystic fibrosis transmembrane conductance regulator) (P13569 whole entry): as the sequence (P13569 whole entry G551D) above, with D551G counted along it

## Ac-GLEISEQINQQNLKQSFFND[Nle]E [Q4N2NEG2 polypeptide]
[1]
  open probability (Po) of CFTR channels in planar lipid bilayer: 2 fold
  open probability of single wt-CFTR channels in planar lipid bilayer, 4 µM peptide, 5 experiments: ~2 fold
Mutant G551D CFTR
  open probability in planar lipid bilayer: ~3 fold
